Test [1] has as its target T1, MLL-pM-A6 peptide on HLA-B*07:02 (human).
T1 peptide: EPR[pS]PAHSM
Description: activation reporter or marker.

For test [2], the target named is T2, MLL-pM-A3 peptide on HLA-B*07:02 (human).
T2 peptide: EPA[pS]PSHSM
The experiment in a line: activation reporter or marker.

The target of test [3] is T3, MLL-pM-A5 peptide on HLA-B*07:02 (human).
T3 peptide: EPR[pS]ASHSM
Description: activation reporter or marker.

In test [4] the target is T4, MLL-pM-A4 peptide on HLA-B*07:02 (human).
T4 peptide: EPRAPSHSM
Description: activation reporter or marker.

For test [5], the target named is T5, MLL-pM-A1 peptide on HLA-B*07:02 (human).
T5 peptide: APR[pS]PSHSM
The experiment in a line: activation reporter or marker.

The target of test [6] is T6, MLL (KMT2A), MLL-pP peptide on HLA-B*07:02 (human).
T6 peptide: RVR[pS]PTRSP
Description: activation reporter or marker.

Test [7] concerns the target T7, MLL-pM-A9 peptide on HLA-B*07:02 (human).
T7 peptide: EPR[pS]PSHSA
Description: activation reporter or marker.

In test [8] the target is T8, MLL-pM-A8 peptide on HLA-B*07:02 (human).
T8 peptide: EPR[pS]PSHAM
Description: activation reporter or marker.

Test [9] deals with T9, MLL-pM-A2 peptide on HLA-B*07:02 (human).
T9 peptide: EAR[pS]PSHSM
Description: activation reporter or marker.

Test [10] has as its target T10, MLL-pM-A7 peptide on HLA-B*07:02 (human).
T10 peptide: EPR[pS]PSASM
Description: activation reporter or marker.

The target in test [11] is T6, MLL (KMT2A), MLL-pP peptide on …. Description: multimer staining.

Where no end group is shown, it is not given here. [ ]: non-standard residue; d: D form. pS = N[C@@H](COP(=O)(O)O)C(=O)O

B1: TCR0077 (TCR, V domains shown)
Valpha: TQLLEQSPQFLSIQEGENLTVYCNSSSVFSSLQWYRQEPGEGPVLLVTVVTGGEVKKLKRLTFQFGDARKDSSLHITAAQPGDTGLYLCAGYGGGSNYKLTFGAGTRLTVKP
Vbeta: EAQVTQNPRYLITVTGKKLTVTCSQNMNHEYMSWYRQDPGLGLRQIYYSMNVEVTDKGDVPEGYKVSRKEKRNFPLILESPSPNQTSLYFCASRLTGRVHGYTFGPGTRLTVL
Take B1: the binding result in test [1] is “no recognition”; in [2], “recognises”; in test [3] it was “no recognition”; in [4] it was “no recognition”; in test [5] it was “no recognition”; in [6] it was “no recognition”. In addition, the binding result in test [7] is reported as “no recognition”; in [8], “recognises”; in test [9], “no recognition”; in test [10] it was “no recognition”.

B2: TCR0085 (TCR, V domains shown)
Valpha: KQEVTQIPAALSVPEGENLVLNCSFTDSAIYNLQWFRQDPGKGLTSLLLIQSSQREQTSGRLNASLDKSSGRSTLYIAASQPGDSATYLCAVMLWNQGGKLIFGQGTELSVKP
Vbeta: KAGVTQTPRYLIKTRGQQVTLSCSPISGHRSVSWYQQTPGQGLQFLFEYFSETQRNKGNFPGRFSGRQFSNSRSEMNVSTLELGDSALYLCASSLGRGYEQYFGPGTRLTVT
Turning to B2, the binding result in test [11] is “recognises”; in [1] it was “no recognition”; in test [2] it was “no recognition”; in [3], “no recognition”; in test [4] it was “no recognition”; in [5], “no recognition”. The binding result in test [7], in test [8], in test [9] and in test [10] was “no recognition” each time.

The values above are taken from patent publication US20200308246A1 (published 2020).
